Measurements published in US20150030609A1, “DIAGNOSIS AND TREATMENT OF TRAUMATIC BRAIN INJURY” (UNIVERSITY OF SOUTH FLORIDA, priority 2011, published 2015).
Entries after “also recorded” stand apart in the source; their conditions may differ.

Key:
[1] = test system: primary neuronal cultures; test: LDH assay of cell death in primary neuronal cultures exposed to normoxia or OGD with recombinant CCL20; type: cell-based, rat; conditions: 200 ng recombinant CCL20, 24 h
Experimental: Cortices from E18 rat embryos were dissociated with a solution of 0.25% trypsin/2.21 mM EDTA for 10 min at 37° C. The solution was triturated to obtain a uniform single cell suspension. After centrifugation, the supernatant was aspirated off and the cells were re-suspended in DMEM (Mediatech, Mannasas, Va.). Trypan blue exclusion was used to count viable cells and 3×10^5 cells in a final volume of 1 mL were seeded on 24 well poly-L-lysine treated culture plates. After 24 h, the medium was changed to neurobasal complete (neurobasal medium (Invitrogen), B-27 (Invitrogen), 0.05 mM L-glutamine (Mediatech) and cells were cultured for 7 days. Cells were used for oxygen glucose deprivation (OGD) experiments following one medium change, as determined by experimental grouping.
Primary cells previously seeded onto glass coverslips were randomly assigned to one of five conditions: OGD (DMEM without glucose)+vehicle, OGD+CCL20 (200 ng; Rad Systems, Minneapolis, Minn.), normoxia (DMEM with glucose) only, normoxia+vehicle, or normoxia+CCL20. […] The medium from each well was collected, clarified by centrifugation, and lactate dehydrogenase (LDH) analyzed immediately.
Cell death in culture was determined using the lactate dehydrogenase (LDH) assay (Takara Bio, Inc., Madison, Wis.). […] Plates were incubated for 30 min at 25° C. and absorbances were read on a microplate reader at a 548 nm wavelength. […]

[2] = test system: primary oligodendrocyte (OL) cultures; test: LDH assay of cell death in primary oligodendrocyte cultures exposed to normoxia or OGD with recombinant CCL20; type: cell-based, rat
Experimental: Mixed glial cultures were prepared from postnatal day 2 rats and oligodendrocytes (OL) cultures were purified using the shaking and differential adherence method as previously described (26). Cell preparations were seeded (1.5×10^7) into flasks, OLs were purified from these preparations after 8 DIV and plated onto glass poly-l-lysine-treated coverslips. Following a 7 day proliferation period, the PDGF-AA was withdrawn for 5 days to induce OL differentiation into the mature phenotype. Experiments were conducted within three weeks.
Primary cells previously seeded onto glass coverslips were randomly assigned to one of five conditions: OGD (DMEM without glucose)+vehicle, OGD+CCL20 (200 ng; Rad Systems, Minneapolis, Minn.), normoxia (DMEM with glucose) only, normoxia+vehicle, or normoxia+CCL20. Cells undergoing OGD were placed in an airtight hypoxic chamber. The chamber was then flushed with hypoxic gas (95% N2, 4% CO2, 1% O2; Airgas, Tampa, Fla.) for 15 min and […] for the duration of exposure. Normoxic cells were maintained in a standard tissue culture incubator. Cultures were subjected to OGD or normoxia for 24 h at 37° C. The medium from each well was collected, clarified by centrifugation, and lactate dehydrogenase (LDH) analyzed immediately.
Cell death in culture was determined using the lactate dehydrogenase (LDH) assay (Takara Bio, Inc., Madison, Wis.). Briefly, 100 μl of tissue culture medium from each experimental group was added to a 96-well plate and 100 μl of LDH reagent was added to each well. Plates were incubated for 30 min at 25° C. and absorbances were read on a microplate reader at a 548 nm wavelength. The absorbance of medium only wells was subtracted from the total absorbance of each experimental treatment group to control for background LDH activity.
Briefly, rat primary neurons or OLs were exposed to normoxia or OGD in the presence of 200 ng recombinant CCL20 or vehicle. Following the exposure, culture medium was collected and the LDH assay was performed to assess cellular death.

CCL20: recombinant CC chemokine ligand 20 (CCL20, MIP-3α), purchased chemokine applied at 200 ng to cultured cells
LDH release / neuronal viability ([1]; normoxia): did not affect neuronal viability; also recorded: had no effect | LDH release / cell death in neurons ([1]; oxygen glucose deprivation (OGD), relative to OGD alone): significantly increased; also recorded: increased lactate dehydrogenase (LDH) release | LDH release / cellular toxicity in OL cultures ([2]; normoxia, 200 ng recombinant CCL20, 24 h, vs normoxia without CCL20): elicited toxicity to OLs; also recorded: increased LDH release | LDH release / cell death in OL cultures ([2]; oxygen glucose deprivation (OGD), 200 ng recombinant CCL20, 24 h, relative to OGD alone): significantly increased; also recorded: further enhanced OGD-induced cellular toxicity | toxicity to cultured oligodendrocytes ([2]; summary statement, conditions not given): toxic to cultured oligodendrocytes
